Source: patent publication US20160237147A1

Legend:
[1] = target: recombinant human NGF 1-120 (human) (UniProt P01138); assay: cell-based or functional assay
[2] = target: recombinant rat beta-NGF (R&D Systems) (rat) (UniProt P25427); assay: cell-based or functional assay
Chain of recombinant rat beta-NGF (R&D Systems) (rat) (P25427 122-241 limits assumed): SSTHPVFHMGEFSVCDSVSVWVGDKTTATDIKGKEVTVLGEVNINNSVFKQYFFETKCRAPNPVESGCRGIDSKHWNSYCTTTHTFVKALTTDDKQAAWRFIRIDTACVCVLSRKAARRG

Chain of recombinant human NGF 1-120 (human) (P01138 other isoform, or with tags, fused parts or gaps): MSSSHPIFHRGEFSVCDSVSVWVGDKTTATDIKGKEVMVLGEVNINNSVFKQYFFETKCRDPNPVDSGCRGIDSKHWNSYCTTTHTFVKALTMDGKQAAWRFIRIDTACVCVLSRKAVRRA

Row | IC50 @ hNGF, NGF neutralization activity as in Example 3 [1] [nM] | IC50 @ rNGF, NGF neutralization activity as in Example 3 [2] [nM] | Binder
1 | 0.392 | > 13 | anti-NGF antibody 14D10 (antibody, V domains shown) VH: EVQLVESGGGLVQPGRSLRLSCTASGFTFEDYAMHWVRQAPGKGLEWVSGISWNRGIIGYADSVKGRFTVSRDNAKNSLYLQMNSLRAEDTALYYCAKEGYYGSGRPGYFYYVMDVWGQGTTVTVSS VL: EIVLTQSPGTLSLSPGERATLSCRASQSVSSGFLAWFQQKPGQAPRLLIYGASSRATAIPDRFSGSGSGTDFTLTISRLEPEDFAVYYCQQYGSSPYTFGQGTKLEIK
2 | 0.28 | > 20 | anti-NGF antibody 14D11 (antibody, V domains shown) VH: EVQLVQSGAEVKKPGESLKISCKGSGYNFTTYWIGWVRQMPGKGLEWMGIIYPGDSDTKYSPSFQGQVTISADKSISTAYLQWSSLKASDTAMYYCARNYYGSGTYYYYYGMNVWGQGTTVTVSS VL: DIQMTQSPSSVSASVGDRVTITCRASQGISIWLAWYQHKPGKAPKLLIYAASSLQSGVPSRFSGSGSGTDFTLTISSLQPEDFATYYCQQANSFPWTFGQGTKVEIK
